Measured values: paper PMC9165289, “Theranostic PSMA ligands with optimized backbones for intraoperative multimodal imaging and photodynamic therapy of prostate cancer” (European Journal of Nuclear Medicine and Molecular Imaging, 2022)
Where two headings read alike, the source gives them in different places.

What was measured:
[1] = ex vivo biodistribution of 111In-labeled ligands; set-up: species or system BALB/c nude mice; conditions: male, BALB/c nude, mouse, iv, 0.3 nmol, total radioactivity, 2 h p.i.; for tissue uptake at 2 h: 10 MBq/mouse, i.v.
Procedure: (§1) All animal experiments were approved by the institutional Animal Welfare Committee of the Radboud University Medical Center and were conducted in accordance to the guidelines of the Revised Dutch Act on Animal Experimentation. Animal experiments were performed in 8–10 weeks old male BALB/c nude mice (Janvier). The mice were housed in individually ventilated cages (Blue line IVC, 3–5 mice per cage), under standard non-sterile conditions with cage enrichment present. There was free access to chlorophyll-free animal chow (Sniff Voer) and water. Mice were subcutaneously inoculated with 3.0 × 10^6 LS174T-PSMA cells in the right flank and 1.5 × 10^6 LS174T WT cells in the left flank (diluted in 200-µl RPMI 1640 medium). When xenografts were approximately 0.5 cm^3 (10–14 days after injection), mice were block-randomized into groups based on tumor size. The researchers were not blinded for the experimental groups.
(§2) Mice were intravenously injected with 0.3 nmol PSMA ligand, labeled with 10 MBq ^111In (molar activity 33.3 MBq/nmol) in PBS + 0.5% (w/v) BSA. For the ex vivo biodistribution, five groups (one group for each ligand) of four mice were included. Two hours p.i., all mice were euthanized by CO2/O2-asphyxiation. For two mice of each group (2 mice/ligand), background-subtracted fluorescence images were acquired with the IVIS imaging system (Xenogen VivoVision IVIS Lumina II, PerkinElmer), with a 640-nm excitation filter and a Cy5.5 emission filter and an acquisition time of 10 s. Next, µSPECT/CT imaging was performed in the same two mice per group, with a 1.0-mm diameter pinhole mouse collimator tube (U-SPECT II, MILabs). Mice were scanned for 30 min followed by a CT scan for anatomical reference (spatial resolution 160 μm, 615 μA, 65 kV). MILabs reconstruction software was used to reconstruct the µSPECT/CT scans, via an ordered-subset expectation maximization algorithm, energy windows 154–188 keV and 220–270 keV, 3 iterations, 16 subsets, and voxel size of 0.75 mm. SPECT/CT maximum intensity projections (MIPs) were created using the Inveon Research Workplace software (Siemens Preclinical Solutions, version 4.1). NIR fluorescence images were analyzed using Living Image software (PerkinElmer, version 4.2). After imaging, relevant tissues were dissected, weighed, and measured for radioactivity in a gamma-counter (2480 WIZARD^2 Automatic Gamma Counter, PerkinElmer). In addition, a blocking experiment with PSMA-N064 and PSMA-617 was performed. Full experimental procedures and results can be found in the supplementary data (Page 5, Supplementary Fig. 3).

[2] = test system: LS174T-PSMA and LS174T wildtype xenografts; assay: ex vivo biodistribution of 111In-labeled ligands; set-up: species or system BALB/c nude mice; conditions: 0.3 nmol, 2 h p.i.
Procedure: as §1, §2

SMILES: C[Si](C)(CCC[N+](CCCS(=O)(=O)[O-])(CCCS(=O)(=O)O)CCCS(=O)(=O)O)O[Si]1(O[Si](C)(C)CCC[N+](CCCS(=O)(=O)[O-])(CCCS(=O)(=O)O)CCCS(=O)(=O)O)n2c3c4ccccc4c2N=C2N=C(N=c4c5c(OCCCOC(=O)NCCCCCC(=O)NCCCC[C@H](NC(=O)CCC(C(=O)O)N6CCN(CC(=O)O)CCN(CC(=O)O)CCN(CC(=O)O)CC6)C(=O)N[C@@H](Cc6ccccc6)C(=O)N[C@@H](CCC(=O)O)C(=O)N[C@@H](CCC(=O)O)C(=O)NCCCCCC(=O)NCCCC[C@H](NC(=O)N[C@@H](CCC(=O)O)C(=O)O)C(=O)O)cccc5c(n41)=NC1=NC(=N3)c3ccccc31)c1ccccc12 (stereo partly drawn) [PSMA-N064]
- tissue uptake at 2 h ([1]; LS174T wildtype tumor, n=4, read-out: Biodistribution Tumor- LS174T): 0.7 ± 0.3 %ID/g
- tissue uptake at 2 h ([1]; LS174T-PSMA tumor, n=4, read-out: Biodistribution Tumor+ LS174T-PSMA): 14 ± 2 %ID/g
- tissue uptake at 2 h ([1]; adrenals, n=4, read-out: Biodistribution Adrenals): 1.6 ± 0.4 %ID/g
- tissue uptake at 2 h ([1]; blood, n=4, read-out: Biodistribution Blood): 0.3 ± 0.1 %ID/g
- tissue uptake at 2 h ([1]; bone marrow, n=4, read-out: Biodistribution Bone marrow): 0.2 ± 0.1 %ID/g
- tissue uptake at 2 h ([1]; bone, n=4, read-out: Biodistribution Bone): 0.7 ± 0.1 %ID/g
- tissue uptake at 2 h ([1]; duodenum, n=4, read-out: Biodistribution Duodenum): 0.3 ± 0.1 %ID/g
- tissue uptake at 2 h ([1]; heart, n=4, read-out: Biodistribution Heart): 0.4 ± 0.1 %ID/g
- tissue uptake at 2 h ([1]; kidney, n=4, read-out: Biodistribution Kidney): 74 ± 17 %ID/g
- tissue uptake at 2 h ([1]; liver, n=4, read-out: Biodistribution Liver): 0.9 ± 0.2 %ID/g
- tissue uptake at 2 h ([1]; lung, n=4, read-out: Biodistribution Lung): 0.5 ± 0.1 %ID/g
- tissue uptake at 2 h ([1]; muscle, n=4, read-out: Biodistribution Muscle): 0.1 ± 0.04 %ID/g
- tissue uptake at 2 h ([1]; pancreas, n=4, read-out: Biodistribution Pancreas): 0.3 ± 0.05 %ID/g
- tissue uptake at 2 h ([1]; prostate, n=4, read-out: Biodistribution Prostate): 0.6 ± 0.1 %ID/g
- tissue uptake at 2 h ([1]; salivary glands, n=4, read-out: Biodistribution Salivary glands): 0.4 ± 0.04 %ID/g
- tissue uptake at 2 h ([1]; spleen, n=4, read-out: Biodistribution Spleen): 1.4 ± 0.3 %ID/g
- tissue uptake at 2 h ([1]; stomach, n=4, read-out: Biodistribution Stomach): 0.4 ± 0.1 %ID/g
- tissue to tissue ratio at 2 h ([1]; tumor (LS174T-PSMA xenograft) / blood, read-out: Tumor/Blood ratio): 54 ± 14.7
- tissue to tissue ratio at 2 h ([1]; tumor (LS174T-PSMA xenograft) / kidney, read-out: Tumor/Kidney ratio): 0.2 ± 0.03
- tissue to tissue ratio at 2 h ([1]; tumor (LS174T-PSMA xenograft) / liver, read-out: Tumor/Liver ratio): 15.6 ± 3.6
- tissue to tissue ratio at 2 h ([1]; tumor (LS174T-PSMA xenograft) / spleen, read-out: Tumor/Spleen ratio): 9.6 ± 0.4
- Tumor/Negative tumor ratio [2]: 23.8 ± 9.7
- Tumor/Prostate ratio [2]: 21.9 ± 1.7
- Tumor/Salivary gland ratio [2]: 33.8 ± 6.6
